Reference: publication doi:10.1101/2021.08.16.456468

Target: DnaD^7A, purified (B. subtilis) (UniProt P39787)
Assay: SEC

## DnaD^7A, purified (from UniProt P39787 1-232) (natural protein)
  stoichiometry N: 4
